According to paper doi:10.1101/2021.03.05.434000 (bioRxiv, 2021):

Target: the molecule itself
Experiment: crystal structure

Protein | binding result
GQTVTK [NCAP segment 243-GQTVTK-248] | binds
GSQASS [NCAP segment 179-GSQASS-184] | binds
AALALL [NCAP segment 217-AALALL-222] | binds
